In publication PMC5118412 (Cell Discovery, 2016):

Key:
GLP-1R = conditions: covalently attaches to C347; ref [34], [35]; cited from earlier work
Description: GPCRs have been viewed as ‘allosteric machines’ [33] because many allosteric modulators have been identified binding outside the orthosteric pocket of the physiological activators to modulate endogenous agonist binding and function. […] Although mutating C347 to positively charged lysine or arginine ...

[1] = target: GLP-1 Δ4-5xGSA-GLP-1R (24–429)–TEV site–tTA (UniProt P43220)
[2] = target: GLP-1 Δ5-5xGSA-GLP-1R (24–429)–TEV site–tTA (UniProt P43220)
[3] = target: EX4-5xGSA-GLP-1R (24–429)–TEV site–tTA (Gila monster | human) (UniProt P43220)
[4] = target: GLP-1-5xGSA-GLP-1R (24–429)–TEV site–tTA (UniProt P43220)
[5] = target: human GLP-1R stably expressed in AD293 cells (GLP-1R/NlucP-293 cells) (human) (UniProt P43220)

Question: With `CC[S+]([O-])c1nc(-c2cccc(OCc3ccccc3)c2)cc(C(F)(F)F)n1` (stereo not drawn) [BETP, 4-(3-(Benzyloxy)phenyl)-2-ethylsulfinyl-6 (trifluoromethyl)pyrimidine] as the compound, how does the “allosteric modulation of GLP-1R” value (GLP-1R) read?
Answer: positive allosteric modulator

Question: Which Tango assay (tTA/TRE-luc reporter) in HTL cells, relative to GLP-1-5GSA-FL (Δ0) (% of GLP-1-5GSA-FL (Δ0)) [1] does the source give for “ß-arrestin 1 fused with TEV protease (from UniProt P49407 1-418) (natural protein)” here?
Answer: 50

Question: What about the Tango assay (tTA/TRE-luc reporter) in HTL cells, relative to GLP-1-5GSA-FL (Δ0) (% of GLP-1-5GSA-FL (Δ0)) [2] of the same compound?
Answer: 50

Question: And the Tango assay (tTA/TRE-luc reporter) in HTL cells; arrestin recruiting signal against the unfused receptor with 1 μM hormone [3]?
Answer: 150

Question: What about the Tango assay (tTA/TRE-luc reporter) in HTL cells; arrestin recruiting signal against the unfused receptor with 1 μM hormone [4] of the same compound?
Answer: 150

Question: For GLP-1(9–37) (peptide), which cAMP signal (CRE-NanoLuc luciferase reporter) in GLP-1R/NlucP-293 cells; potency (EC50) of full-length GLP-1 over that of the truncated GLP-1 [5] is on record?
Answer: 1000 fold
